According to the supplement of paper PMC9170038:

Test system: K4 kissing-loop RNA reporter
Assay: apparent KD of K4 kissing-loop reporter; higher = weaker reporter binding
Conditions: Eterna round: R107
Experimental: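 RNA-MaP round R107: designed RNA switches with theophylline, tryptophan, arginine or FMN aptamers are transcribed on-chip within common flanks. They are titrated with a labelled K4 kissing-loop RNA reporter in RNA-MaP buffer (100 mM Tris pH 7.5, 80 mM KCl, 4 mM MgCl2), without ligand or with the indicated ligand. Median apparent KD per design.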

[1] = input ligand: theophylline 20 uM
[2] = input ligand: tryptophan 2.4 mM
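Also: bound reporter read as fluorescence of individual clusters on recovered sequencing chips by microscopy, with normalized cluster intensities fitted with a binding model.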

Row | Sequence | apparent KD of K4 kissing-loop reporter (input ligand: FMN 200 uM) [nM] | apparent KD of K4 kissing-loop reporter (input ligand: arginine 13.2 mM) [nM] | apparent KD of K4 kissing-loop reporter (input ligand: none) [nM] | apparent KD of K4 kissing-loop reporter [1] [nM] | apparent KD of K4 kissing-loop reporter [2] [nM]
1 | UAAUGUGGCACAGGAUAUACUGAUUGGAGUGAUGUUCCAAACAUGAACAAGAGACUUUUACAAGAAGUAGAAGGGUGUUAGAUAU [Exclusion FMN B GF 19] | 269 | 265 | 223 | 295 | 223
2 | CCGGGCGGCUGAAGGAGCGGGCGGGCCCGAGUGAUGUUCGGGUGGGCCGUGAGGCCCGGAGCCCAGGUAGGUCGCGGUUCCGUCC [#2 Same State - Arginine B Attempt #18 (HarryS)] | 201 | 139 | 167 | 196 | 140
3 | AAGUGAUGUUGUAGUGAUGUUGUGAUGUUGCAGGAUAUAUAGUGAUGUAGAAGGGUAAGUACUCAUGUUGUUAGUAAGUGAUGUU [bttutmullin] | 91.5 | 43.2 | 81.7 | 63.7 | 74.2
4 | GGACACUAGGAAACUAGUGUCUCAACUGAAGGAGCGUGAAUAGUCACAGGUAGGUCGCAGUUUGUUAGUGAUGUUGACAUGAGUU [#16 K4 Arginine A Same State] | 302 | 394 | 514 | 439 | 277
5 | UUAGUCUAGAGAGGAUAUCAGUGAUGUUGAUAUCAAGAUCUAAGAUAGAAUUCUAUCUUAGAUCAAUGAGAAGGCUCUAGACAUU [AK1.1 Exc FMN B] | 993 | 144 | 151 | 128 | 147
6 | ACGGGUCGACGAAGGAGCGCCGUGCAGUGAUGUUGCAGUUAGAUCCAGUGAUGUUUGGGCCGGCAGGUAGGUCGCGUCGACUCAU [Exclusion Arginine B GF 21] | 344 | 225 | 278 | 291 | 243
7 | CUGACCAACAGCGAUACCAGCGUGGAGUGAUGUUCCGUGGAUCGGAGUGAUGUUCCGAAGCGCCCUUGGCAGCGCAGAAGCAGGA [Exclusion Theophylline B GF11] | 197 | 136 | 201 | 150 | 152
8 | AAAAUAACCCAGUGAUGUUGGUAUACAGAUACCAGCGACGAAAGUCGCCCUUGGCAGCUGUGGACGUACAAAAUAAGUACGUCCU | 986 | 705 | 1120 | 902 | 1010
9 | GGGCAUGAUACGAUAAAAUAGUGGAGAGAUACCAGCGUUUUAGAUCGCCCUUGGCAGCUCUCGAGUGAUGUUCGGGUAGCUCUGA [Onedra] | 101 | 98.5 | 115 | 114 | 104
10 | AGGAUCCGUCGACAAAAGUCGACAUAAGCCAAGGAUAUGACGAAAGUCAGAAGGUGGUCAUAAGACCAGUGAUGUUGGUGGAUCC [FmnA 13 #SwitchBubble #K4Late] | 909 | 279 | 526 | 309 | 457
11 | AAGCAGUCACUCGCAGCCAUCGAAGAUGGUCGAGGACCGGUACGGCCGCCACUCGGAGUGAUGUUCCGAAGACUGCAAAAUAAAA | 281 | 259 | 282 | 325 | 400
12 | GAGAACUCUUACGAUACCAGCCGGAGUGAUGUUCCGUGCUUGGACGUAGUAACCCGCACCGGCCCUUGGCAGCGUGGAUCCUAUG [Biorar] | 86.1 | 78.3 | 82.3 | 79.3 | 74.4
13 | UGUGAGCUGUCGACAAAAGUCGACUAAAACUAGGAUAUGACGAAAGUCAGAAGGAGUCAAUAAUGGAGUGAUGUUCCUGCUCACU [FmnA 9 U31+A55] | 277 | 367 | 414 | 386 | 331
14 | AACGUUUUGAGAAGGAGCGCGUUAAGCAGUGAUGUUGCUUUAUUAUAUUUACUACAUAUUUCGCAGGUAGGUCGCUCAAUACGUA [JR_Nu_SSArginiB_Sub025] | 154 | 153 | 148 | 152 | 123
15 | ACAAAAGUGAUGUUUUUGAACGUGCGCGAUACCAGAAAUGUCUUCUUCCCUUGGCAGCGCUAUUACUUGUAAGAAAGUACGUUUC [theeternabot_sameState_KL_Theo_A_17] | 969 | 528 | 870 | 774 | 490
16 | UUUUUCGCGUUUGAUACCAGCAGAGUUGUUCUUGUCUGGAACAUGAGUGAUGUUCAUGUCUGCCCUUGGCAGCAAACGGGAGAAG [KL-XTheo-B12] | 122 | 111 | 110 | 114 | 116
17 | GGUGCUGUCUGUGCCGCCCUCCUCGUCCCUCGAGGACCGGUACGGCCGCCACUCGAGUGAUGUUCGGGUAGCCAUCCCUGCUAGC [Bdazzled - #19 Exc. Tryptophan A] | 647 | 666 | 680 | 590 | 937
18 | GGUUUAUAGGAGGAUACCAGUACGAAUAAAGUACAUUAAUAGUAGAGUGAUGUUCUAAAGUACCCUUGGCAGCUUAGAGUAAGUU [#18 K4 Theophylline B Exclusion] | 105 | 212 | 148 | 223 | 80.5
19 | UUAGAUCAAAGAUCAGUCUUAUUGAGAGAACGAGGACCGGUACGGCCGCCACUCGAGUGAUGUUCGAGAACUCUCUUGACAAAUU [AK1 EXC Tryptophan A] | 158 | 150 | 169 | 133 | 258
20 | UGUACCGAGUGAGGAUAUGUCGUCGAAAGACGAAAUGGAGUGAUGUUCCUUAAACUGCGAAAGCAGACAGAAGGUACUUGGUACU [FmnBS 29 G11+U75] | 144 | 298 | 302 | 312 | 275
21 | AGAACUGUCUGAGAUACCAGCCAUAGGAGUGAUGUUCCUAGCUCCACAAAGUGGAGCCAUAGCCCUUGGCAGCUCAGACAGUUCA [Omei KL Theo B SS A v7] | 1040 | 763 | 1150 | 771 | 823

Row | Sequence | apparent KD of K4 kissing-loop reporter (input ligand: FMN 200 uM) [nM] | apparent KD of K4 kissing-loop reporter (input ligand: arginine 13.2 mM) [nM] | apparent KD of K4 kissing-loop reporter (input ligand: none) [nM] | apparent KD of K4 kissing-loop reporter [1] [nM] | apparent KD of K4 kissing-loop reporter [2] [nM]
22 | UGACUGGAUGGAAGGAGCGCUAAACUCCUAGUGAUGUUAGGGACAUGAGGCACAGCCUUGAAGCAGGUAGGUCGCCAUCUAGUCU [FiskerMod 28 - Jieux - Same State - Arginine B] | 197 | 135 | 176 | 166 | 174
23 | GGUAGCAUGGCGGCCGCCACUCUAUGCGAGUGAUGUUCGCAGCUCAAAGAGCACCCGGGAACAGAGAGGACCGGGCCAUGCUACC | 294 | 228 | 261 | 302 | 213
24 | ACAUGACGUGCGCCCGUCAUGAAACGUGCAAAGGAUAUUCCGUUUUGAAGAAGGUUGCGGUAGUGUAGUGAUGUUGCUCCGCCGU [theeternabot_sameState_KL_FMN_A_11] | 512 | 360 | 343 | 315 | 347
25 | CGCCGCAAGGCGGGCCGGCCCACUCCGGAAGGAGCGCCCGCAAGGGCAGGUAGGUCGCCGGAGUGAUGUUCCGGUGGCCGGCCCG [#2 Exclusion - Arginine A Attempt #3 (Inspired by Omei)] | 433 | 244 | 376 | 592 | 354
26 | AGUUCUUGCCGAAGGAGCGAGGCAGAGUGAUGUUCUGCAAAGAGGUCGAAAGACCUCCUGCCUCAGGUAGGUCGCGGCAUGAACA [Omei KL Arginine B Exc A v5] | 814 | 942 | 652 | 509 | 1260
27 | AGAGAUAUAUGAGGAUAUGGGUUUGUUAAUGAGUUAGUUUUAGUGUUGUUUGGUUAGUGAUGUUAUUUAGAAGGCGUGAGUGAUG [aatrmullin] | 94.2 | 62.3 | 61.4 | 78.4 | 62.2
28 | CGCCAGUGAUGUUGGUGCAGCUACCGGGAAGGAGCGCCCAUAAGGGCAGGUAGGUCGCCCGGGCAGUGAUGUUGCCUCAUGCCGC [Exclusion Arginine A GF 22] | 243 | 236 | 273 | 234 | 238
29 | UAGUCCUAGUGAUCGUUAUCACGUGGUGGGCGAGGACCGGUACGGCCGCCACUCGACUAUGCAGUGAUGUUGCAAUCCGGACAAU [Exclusion - Tryptophan A (Freestyle 15)] | 294 | 436 | 477 | 325 | 145
30 | CCUUUAGGCUCGGCCGCCACUCCAGUGAUGUUGGAGGUGCGUACAGAGCUAGAAAGCGUUAUCAGGAGGACCGGGAGUUUUAACG [Leorte] | 98.3 | 107 | 103 | 101 | 110
31 | CUAUAAGUGCCGAGUGAUGUUCGGCCAAUACGAGGACCGGUACGGCCGCCACUCGGUCAGUGGGUGCCCACCGGGCAUGGCUGAC [Cecezaa] | 174 | 217 | 176 | 227 | 112
32 | UGACUACAAGGAAAAUAAUCCUAGUGAUGUUAGGAUAUGCUGAUAAGCAGAAGGAACUGAGAUCGAAAGAUCUCAAAUGUAGUCU [FmnAX 27 Mat Inspired #SwitchBubble #StaticStem #K4Early] | 121 | 92 | 87.2 | 102 | 93.5
33 | UAAUAAAUUCCAGCGAUAUCGCUCUUCGAAGGAGCGGACGAAAGUCCAGGUAGGUCGCGGAGAGUGAUGUUCUUUGCGGCGCUGG [whbob_Ex_Arginine_A_2t133] | 450 | 177 | 356 | 298 | 266
34 | AUCAGUGUCUCACGCUACGACAUAUACGAUACCAGUCACCCUGAUGACCCUUGGCAGCGUCAACGAGUGAUGUUCGGGUUCUAGA [theeternabot_sameState_KL_Theo_A_1] | 345 | 241 | 404 | 389 | 309
35 | UUAGUCUAGAGAGGAUAUCAGUGAUGUUGAUAUCAAGAUCUGAGAUAGAAUUCUAUCUCAGAUCAAUGAGAAGGCUCUAGACAUU [AK1.2 Exc FMN B] | 778 | 151 | 168 | 147 | 143
36 | UGUCAUUGGUCUGAUACCAGUUAGACCGAUAGGUCAAAACUGGAGUGAUGUUCCUAAAAUAACCCUUGGCAGCAGACCGAUGACU [TheoBS 2 #SwitchBubble #StaticStem] | 1380 | 601 | 1010 | 856 | 954
37 | AUUAUAAAGGCGGCCGCCACUAGUGAUGUUAGUGACUAUAGUAUUAUCUAUAGAAUAAAAUAAAAUAGGACCGGGCCAAAAUAUU [AstrosExTryB#2] | 535 | 411 | 525 | 493 | 464
38 | ACGCCGAGGACGGCCGCCACUAUGACGAAGUCCGUUCCUAUUACUGCGCGAGUGAUGUUCACGACUAGGACCGGGUCUAUGAGCU [theeternabot_exclusion_KL_Trp_B_28] | 775 | 708 | 843 | 771 | 631
39 | UAACGCUGACAGCAACAAUUCGGGCCUGAUACCAGCAAUUUUUCAUGCCCUUGGCAGCAGAGUGAUGUUUUCUGUCUAUUUAGUC [theeternabot_exclusion_KL_Theo_A_23] | 628 | 723 | 864 | 700 | 520
40 | GUAGAUAGGCUACAUCUCUAGUCUAAACACUAGGAUAUCAGGAAACUGAGAAGGAGUGUCAUUGGAGUGAUGUUCCAAGAAUAAU [KL-SSFMN-A17] | 166 | 195 | 185 | 225 | 167
41 | AAGACCUGCAUCGAUACCAGCCCAGUGAUGUUGGGCUGCUCUCCAUGGGUGCCAGACACGGGCCCUUGGCAGCGAGGUAGGGCCC [Zazadilabi] | 136 | 106 | 117 | 93.1 | 103
42 | UGAUACCAGACUGAUACCAGCUAGUGAUGUUAGCUGAAAUCAGGGUCAAAGACCCUGUCUAGCCCUUGGCAGCAGUCUGGUAUCU [TheoBX 9 #SwitchBubble #StaticStem] | 107 | 93.8 | 98.3 | 133 | 91.5
